No end group written: not given here. *: point of attachment. Acm = CC(=O)NC*
Test system: focal inflammation in the leg (zymosan-injected left hindleg)
Type: in vivo, male Wistar rats
Conditions: rat; for Fluid:Blood (inflammatory exudate:blood) / Inflam:Uninfl (inflamed:uninflamed muscle, target to background ratio): i.v. via tail vein, 30 minutes, average of two rats; for Inflam:Uninfl (inflamed:uninflamed muscle, target to background ratio): corrected for residual dose in the tail; for GI Tract (% dose) / Liver (% dose) / Urine (% dose): in vivo, iv
Description: Rat inflammation studies were performed as follows.
Serial whole-body scintigrams were acquired at 30 minutes.

Substance	Fluid:Blood (inflammatory exudate:blood)	Inflam:Uninfl (inflamed:uninflamed muscle, target to background ratio)	GI Tract (% dose)	Liver (% dose)	Urine (% dose)
N,N-dibenzylGly-Ser-Cys(Acm)-Gly-Thr-Lys-Pro-Pro-Arg ({N,N‑dibenzyl}-GSC(Acm)GTKPPR)	0.4	3.7	7.5	2.3	55.1
N,N-dimethylGly-Ser-Cys(Acm)-Gly-Thr-Lys-Pro-Pro-Arg ({N,N‑dimethyl}-GSC(Acm)GTKPPR)	1.9	5.3	2.8	2.4	63.5
N,N-dimethylGly-Thr-Cys(Acm)-Gly-Thr-Lys-Pro-Pro-Arg ({N,N‑dimethyl}-GTC(Acm)GTKPPR)	1.6	4.6	2.5	2.4	
